# Biological target: Human GPA33 (Novoprotein), recombinant protein immobilized on CM5 chips (human) (UniProt Q99795)
# Experiment: SPR (Biacore T100), GPA33 recombinant protein immobilized on CM5 chip, antibody flowed over
# Chain of Human GPA33 (Novoprotein), recombinant protein immobilized on CM5 chips (human) (Q99795 22-235 limits assumed): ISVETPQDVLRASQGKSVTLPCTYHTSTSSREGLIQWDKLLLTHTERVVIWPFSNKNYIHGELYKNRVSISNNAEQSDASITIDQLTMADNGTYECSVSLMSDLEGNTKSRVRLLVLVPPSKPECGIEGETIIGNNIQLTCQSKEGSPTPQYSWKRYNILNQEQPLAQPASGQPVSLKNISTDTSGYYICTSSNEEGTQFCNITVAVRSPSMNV
substance,measurement,value
"hA33-mC825 BsAb (original humanized hA33 in hA33-mC825 bispecific format, Cheal et al. 2016) (bispecific antibody)",Kd,1.59 nM
same,koff,0.00294 s⁻¹
same,kon,1.85e+06 M⁻¹ s⁻¹
